US20170115291A1, “Activating JAK Kinase Biomarkers Predictive of Anti-Immune Checkpoint Inhibitor Response” (Dana-Farber Cancer Institute, Inc., priority 2014, published 2017)

System: CD14+ myeloid cells
Assay: PBMC stimulation with IFNγ, PD-L1 on CD14+ myeloid cells by flow cytometry
Type: cell-based, human
Settings: JAK3 V722I positive patients vs JAK3 P132T positive patient or blood donor controls, 250 ng/ml, 48 h
Protocol: Peripheral blood mononuclear cells (PBMCs) from patients identified as having JAK3 V722I or P132T variants (see sequencing section above) and healthy donors were isolated from fresh blood and platelet-depleted blood collars, respectively, by Ficoll method. PBMCs were plated at a density of 7.5×10^5 cells/ml in a 48-well plate and stimulated with 250 ng/ml IFNγ (PBL Interferon Source). No stimulation controls were set-up for each donor. At 48 h post-stimulation, cells were treated with 2 mM EDTA and collected for flow cytometry to assess for PD-L1 expression on CD14+ myeloid cells. Cells were stained with Live/Dead yellow viability dye (Invitrogen), as well as antibodies (BD Biosciences) against CD14 (M5E2), CD11b (ICRF44), and PD-L1 (MIH1) for 30 min at 4 C, and then fixed in BD Cytofix® buffer prior to analyses on BD LSR Fortessa SORT® HTS flow cytometer. Given the need to compare the difference between two means in relation to the variation in the data, a t-test was used to compare PD-L1 inducibility between V722I and non-V722I monocytes.

B1: IFN-γ: cytokine known to trigger PD-L1 in the tumor immune microenvironment (protein, UniProt P01579 24-161, looked up)
Interferon gamma: QDPYVKEAENLKKYFNAGHSDVADNGTLFLGILKNWKEESDRKIMQSQIVSFYFKLFKNFKDDQSIQKSVETIKEDMNVKFFNSNKKKRDDFEKLTNYSVTDLNVQRKAIHELIQVMAELSPAAKTGKRKRSQMLFRG
- Expression of PD-L1 on CD14+ myeloid cells: modest but significantly increased
